{"source": "patent US12156889B2", "about": "“Methods of administering mesenchymal stem cells activated by cytokines for enhancing immunosuppression” (Rutgers, The State University of New Jersey, priority 2012, dated 2024)", "tested_on": "T cell hybridoma A1.1 cells", "assay": "T cell hybridoma A1.1 proliferation in co-culture with MSCs", "assay_type": "cell-based, mouse", "procedure": "FIG. 7. […] MSC cells and T-cell hybridoma A1.1 cell line were co-cultured at a ratio of 1:20. The co-cultures were supplemented with IFNγ+ TNF α, or IL-17A+IFNγ+TNFα. Cell proliferation was measured by the cell density indicated by O.D. 570 nm.\nFIGS. 9A, 9B, 9C, 9D, 9E, 9F and 9G. (FIG. 9A). Cloned MSCs were first treated with the indicated combinations of recombinant cytokines IFNγ, TNFα, IL-17A (2 ng/ml each) for 12 hr, then cocultured with CD4^+ T cell blasts at a 1:20 ratio (MSC:T cells), and proliferation was assessed by 3H-thymidine incorporation after an additional 12 hr. (FIG. 9B). The mRNA expression of IL-17 receptor family members in MSCs or Raw 264.7 (Macrophages) were examined by RT-PCR. NC: No RT. (FIG. 9C). Surface expression of IL-17RA was detected by immunofluoresence or flow cytometry in cloned MSCs. (FIGS. 9D and 9E). MSCs were first treated with IFNγ and TNFα with or without IL-17A (10 ng/ml), IFNγ and TNFα were supplemented at different cytokine concentrations, for 12 hr, and then cocultured with CD4^+ T cell blasts (FIG. 9D) or T cell hybridoma A1.1 cells (FIG. 9E) at a ratio of 1:20 for 12 hr. T cell proliferation was measured by 3H-Tdr incorporation. (FIG. 9F). MSCs were first treated with IFNγ and TNFα (2 ng/ml) with graded concentrations of IL-17A, for 12 hr, and then cocultured with T cell hybridoma A1.1 cells at a ratio of 1:10 for 12 hr. T cell proliferation was measured by 3H-thymidine incorporation. (FIG. 9G). MSCs were cocultured with fresh C57BL/6 splenocytes plus anti-CD3, anti-CD28, and antibodies against IL-17A, at a 1:20 or 1:40 ratio (MSCs:splenocytes), for 48 hr, and then cell proliferation was assessed by 3H-thymidine incorporation. Proliferation values represent means±SEM of three wells from a representative of three experiments.\nFIGS. 11A, 11B, 11C and 11D. (FIG. 11A) MSCs with Act1 knockdown or control were treated with IL-17A for different time and the phosphorylation levels of IκBα, ERK, p65, JNK were assessed by Western Blot. (FIG. 11B) MSCs with Act1 knockdown or control were treated with IFNγ and TNFα with or without IL-17A (all cytokines supplemented at 5 ng/ml) the protein levels of iNOS and Act1 were assessed by Western Blot. (FIG. 11C) MSCs (Act1 knockdown or control) were treated with different cytokines 12 hr, and iNOS expression was measured by quantitative RT-PCR. mRNA expression values are means±SEM. (FIG. 11D) MSCs (Act1 knockdown or control) were first treated with IFNγ and TNFα with or without IL-17A (all cytokines supplemented at 5 ng/ml) for 12 hr, and then cocultured with T cell hybridoma A1.1 cells at a ratio of 1:10 for 12 hr. T cell proliferation was measured by 3H-Tdr incorporation, taking the proliferation level of A1.1 alone as 100%.\nFIGS. 14A and 14B. (FIG. 14A). WT MSCs or auf1^−/− MSCs were first treated with IFNγ and TNFα with or without IL-17A (all cytokines supplemented at 5 ng/ml) for 12 hr, and then cocultured with T cell hybridoma A1.1 cells at a ratio of 1:10 for 12 hr. T cell proliferation was measured by 3H-Tdr incorporation, taking the proliferation level of A1.1 alone as 100%. (FIG. 14B). WT MSCs or auf1^−/− MSCs were first treated with IFNγ and TNFα with or without IL-17A (10 ng/ml), IFNγ and TNFα were supplemented at different cytokine concentrations, for 12 hr, and then cocultured with T cell hybridoma A1.1 cells at a ratio of 1:10 for 12 hr. T cell proliferation was measured by 3H-Tdr incorporation, taking the proliferation level of A1.1 alone as 100%. […]"}
{"molecule": "IL-17A: recombinant mouse interleukin 17A (protein) AAIIPQSSACPNTEAKDFLQNVKVNLKVFNSLGAKVSSRRPSDYLNRSTSPWTLHRNEDPDRYPSVIWEAQCRHQRCVNAEGKLDHHMNSVLIQQEILVLKREPESCPFTFRVEKMLVGVGCTCVASIVRQAA", "values": [{"measurement": "enhancement of immunosuppression in absence of Act1", "setting": "5 ng/ml, A1.1 1:10", "value": "not seen"}, {"measurement": "IL-17A concentration sufficient to elicit a dramatic decrease in T cell proliferation", "setting": "IFNγ and TNFα 2 ng/ml each, 12 hr, A1.1 1:10", "value": 0.5, "unit": "ng/mL"}, {"measurement": "T-cell proliferation in MSC-T cell co-culture", "setting": "MSC:A1.1 1:20, O.D. 570 nm", "value": "enhanced the suppression"}, {"measurement": "immunosuppressive activity of wild-type MSCs", "setting": "with IFNγ+TNFα, A1.1 1:10", "value": "increased the immunosuppressive activity"}, {"measurement": "immunosuppressive effect of auf1−/− MSCs", "setting": "with IFNγ+TNFα, A1.1 1:10", "value": "did not further enhance"}]}
